Blank lines part the entries; values can stand above or below the molecule they belong to.
Tests used:
Assay in all cases: fluorescence microscopy of rEV binding to transfected cells
[1] = molecular target: gD-GPI CD248 transiently expressed on cells (UniProt Q9HCU0)
[2] = molecular target: T1, full-length CD248 transiently expressed on cells (UniProt Q9HCU0 18-757)
T1 sequence: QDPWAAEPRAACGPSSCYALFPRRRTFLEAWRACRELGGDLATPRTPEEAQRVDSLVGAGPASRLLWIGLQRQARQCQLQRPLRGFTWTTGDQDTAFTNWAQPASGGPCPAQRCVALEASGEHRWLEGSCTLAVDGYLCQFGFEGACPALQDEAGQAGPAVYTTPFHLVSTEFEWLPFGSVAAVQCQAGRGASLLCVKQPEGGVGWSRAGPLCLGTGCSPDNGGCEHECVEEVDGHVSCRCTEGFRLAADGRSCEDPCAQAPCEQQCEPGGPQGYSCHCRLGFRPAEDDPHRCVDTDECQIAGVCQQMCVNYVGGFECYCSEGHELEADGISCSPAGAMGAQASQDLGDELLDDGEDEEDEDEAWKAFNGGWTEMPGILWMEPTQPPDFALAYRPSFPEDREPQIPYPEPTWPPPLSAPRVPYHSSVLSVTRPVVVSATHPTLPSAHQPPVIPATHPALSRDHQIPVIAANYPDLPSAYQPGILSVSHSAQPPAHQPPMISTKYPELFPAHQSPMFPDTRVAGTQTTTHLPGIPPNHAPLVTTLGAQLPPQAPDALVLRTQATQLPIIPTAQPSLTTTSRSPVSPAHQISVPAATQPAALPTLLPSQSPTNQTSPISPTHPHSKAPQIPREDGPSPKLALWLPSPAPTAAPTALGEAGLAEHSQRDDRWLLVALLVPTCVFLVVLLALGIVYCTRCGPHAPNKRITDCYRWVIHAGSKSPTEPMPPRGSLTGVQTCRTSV

[3] = molecular target: T2, gD-GPI CD248 transiently expressed on cells (UniProt Q9HCU0 18-687, glycosylphosphatidylinositol (GPI) lipid anchor)
T2 sequence: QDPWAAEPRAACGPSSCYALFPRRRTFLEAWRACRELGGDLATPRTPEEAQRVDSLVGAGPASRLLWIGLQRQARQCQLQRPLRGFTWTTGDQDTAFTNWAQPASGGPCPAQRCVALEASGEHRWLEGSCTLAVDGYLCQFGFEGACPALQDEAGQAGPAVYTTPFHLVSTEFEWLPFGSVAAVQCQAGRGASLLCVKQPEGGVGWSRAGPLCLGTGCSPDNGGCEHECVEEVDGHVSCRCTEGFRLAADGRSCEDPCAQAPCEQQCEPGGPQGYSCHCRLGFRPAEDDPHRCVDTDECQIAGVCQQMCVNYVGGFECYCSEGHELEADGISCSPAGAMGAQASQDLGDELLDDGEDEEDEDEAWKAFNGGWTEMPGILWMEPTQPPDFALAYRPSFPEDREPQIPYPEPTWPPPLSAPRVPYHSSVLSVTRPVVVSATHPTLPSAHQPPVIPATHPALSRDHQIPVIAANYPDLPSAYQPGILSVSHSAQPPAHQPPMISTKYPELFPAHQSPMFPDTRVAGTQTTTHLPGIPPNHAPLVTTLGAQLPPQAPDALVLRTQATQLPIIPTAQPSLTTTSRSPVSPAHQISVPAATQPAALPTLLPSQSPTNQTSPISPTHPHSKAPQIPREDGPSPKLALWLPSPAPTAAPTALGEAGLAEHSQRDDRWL

fold binding over cells transfected with an empty vector control [1]: > 10 fold
Molecule: gD-GPI–tagged LRRC15 ectodomain displayed on rEVs (from UniProt Q8TF66 22-538) (domain or fragment)

fold binding over cells transfected with an empty vector control [2]: > 10 fold
B1: gD-GPI–tagged LRRC15 ectodomain displayed on rEVs (domain or fragment)
chain: YHGCPSECTCSRASQVECTGARIVAVPTPLPWNAMSLQILNTHITELNESPFLNISALIALRIEKNELSRITPGAFRNLGSLRYLSLANNKLQVLPIGLFQGLDSLESLLLSSNQLLQIQPAHFSQCSNLKELQLHGNHLEYIPDGAFDHLVGLTKLNLGKNSLTHISPRVFQHLGNLQVLRLYENRLTDIPMGTFDGLVNLQELALQQNQIGLLSPGLFHNNHNLQRLYLSNNHISQLPPSVFMQLPQLNRLTLFGNSLKELSPGIFGPMPNLRELWLYDNHISSLPDNVFSNLRQLQVLILSRNQISFISPGAFNGLTELRELSLHTNALQDLDGNVFRMLANLQNISLQNNRLRQLPGNIFANVNGLMAIQLQNNQLENLPLGIFDHLGKLCELRLYDNPWRCDSDILPLRNWLLLNQPRLGTDTVPVCFSPANVRGQSLIIINVNVAVPSVHVPEVPSYPETPWYPDTPSYPDTTSVSSTTELTSPVEDYTDLTTIQVTDDRSVWGMTQAQSG
modifications: glycosylphosphatidylinositol (GPI) lipid anchor

fold binding over cells transfected with an empty vector control [2]: > 10 fold | fold binding over cells transfected with an empty vector control [3]: > 10 fold
B2: full-length LRRC15 displayed on rEVs (receptor)
chain: YHGCPSECTCSRASQVECTGARIVAVPTPLPWNAMSLQILNTHITELNESPFLNISALIALRIEKNELSRITPGAFRNLGSLRYLSLANNKLQVLPIGLFQGLDSLESLLLSSNQLLQIQPAHFSQCSNLKELQLHGNHLEYIPDGAFDHLVGLTKLNLGKNSLTHISPRVFQHLGNLQVLRLYENRLTDIPMGTFDGLVNLQELALQQNQIGLLSPGLFHNNHNLQRLYLSNNHISQLPPSVFMQLPQLNRLTLFGNSLKELSPGIFGPMPNLRELWLYDNHISSLPDNVFSNLRQLQVLILSRNQISFISPGAFNGLTELRELSLHTNALQDLDGNVFRMLANLQNISLQNNRLRQLPGNIFANVNGLMAIQLQNNQLENLPLGIFDHLGKLCELRLYDNPWRCDSDILPLRNWLLLNQPRLGTDTVPVCFSPANVRGQSLIIINVNVAVPSVHVPEVPSYPETPWYPDTPSYPDTTSVSSTTELTSPVEDYTDLTTIQVTDDRSVWGMTQAQSGLAIAAIVIGIVALACSLAACVGCCCCKKRSQAVLMQMKAPNEC
